Values quoted from earlier work in PMC3076733.

Target: Obscurin Rho-GEF (Homo sapiens) (UniProt Q5VST9)
UniProt Q5VST9, sequence (Q5VST9 5700-5884): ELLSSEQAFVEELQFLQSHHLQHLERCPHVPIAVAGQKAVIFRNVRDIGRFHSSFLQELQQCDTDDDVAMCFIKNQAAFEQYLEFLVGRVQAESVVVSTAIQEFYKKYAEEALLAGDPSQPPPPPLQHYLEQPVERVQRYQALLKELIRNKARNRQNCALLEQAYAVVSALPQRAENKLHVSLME

Kd: 2000 nM
Substance: RanBP9 (from UniProt Q96S59)
